B1: SAT2 (parent)
chain: IIKKVAEVALDKGCSQFRLAVLDW
B2: CPN1 (parent)
chain: RGVRRTASTPTPDDKLFQKLAKVY

Variants of: B1
Test: protein stability index of a GFP-peptide fusion (GPS, HEK-293T) (PSI 1-6); higher = more stable
Settings: c terminus: a fixed tail appended
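Note: lentivirally expressed fusions sorted by FACS into six bins by GFP to DsRed ratio, PSI derived from sequencing read proportions per bin multiplied by bin number.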

Variant	protein stability index
IIKKVAEVMLDKGCSQFRLAVLDW [A9M]	2.39
IIKKVAEVNLDKGCSQFRLAVLDW [A9N]	2.8
IIKKVAEVACDKGCSQFRLAVLDW [L10C]	3.52
IIKKVAEVADDKGCSQFRLAVLDW [L10D]	1.75
IIKKVAEVAHDKGCSQFRLAVLDW [L10H]	1.99
IIKKVAEVAMDKGCSQFRLAVLDW [L10M]	4.14
IIKKVAEVANDKGCSQFRLAVLDW [L10N]	1.17
IIKKVAEVASDKGCSQFRLAVLDW [L10S]	1.05
IIKKVAEVATDKGCSQFRLAVLDW [L10T]	3.02
IIKKVAEVALFKGCSQFRLAVLDW [D11F]	3.5
IIKKVAEVALLKGCSQFRLAVLDW [D11L]	1.19
IIKKVAEVALPKGCSQFRLAVLDW [D11P]	4.36
IIKKVAEVALQKGCSQFRLAVLDW [D11Q]	2.15
IIKKVAEVALYKGCSQFRLAVLDW [D11Y]	2.01
IIKKVAEVALDCGCSQFRLAVLDW [K12C]	3.59
IIKKVAEVALDGGCSQFRLAVLDW [K12G]	3.51
IIKKVAEVALDMGCSQFRLAVLDW [K12M]	2.73
IIKKVAEVALDWGCSQFRLAVLDW [K12W]	4.21
IIKKVAEVALDKCCSQFRLAVLDW [G13C]	2.45
IIKKVAEVALDKDCSQFRLAVLDW [G13D]	2.79
IIKKVAEVALDKICSQFRLAVLDW [G13I]	2.37

Variant	protein stability index
IIKKVAEVALDKGDSQFRLAVLDW [C14D]	2.61
IIKKVAEVALDKGNSQFRLAVLDW [C14N]	4.56
IIKKVAEVALDKGSSQFRLAVLDW [C14S]	2.97
IIKKVAEVALDKGYSQFRLAVLDW [C14Y]	2.62
IIKKVAEVALDKGCDQFRLAVLDW [S15D]	2.74
IIKKVAEVALDKGCLQFRLAVLDW [S15L]	3.77
IIKKVAEVALDKGCQQFRLAVLDW [S15Q]	1.56
IIKKVAEVALDKGCWQFRLAVLDW [S15W]	1.79
IIKKVAEVALDKGCYQFRLAVLDW [S15Y]	3.27
IIKKVAEVALDKGCSEFRLAVLDW [Q16E]	3.74
IIKKVAEVALDKGCSFFRLAVLDW [Q16F]	4.68
IIKKVAEVALDKGCSWFRLAVLDW [Q16W]	1.51
IIKKVAEVALDKGCSQDRLAVLDW [F17D]	3.24
IIKKVAEVALDKGCSQKRLAVLDW [F17K]	2.69
IIKKVAEVALDKGCSQMRLAVLDW [F17M]	4.35
IIKKVAEVALDKGCSQPRLAVLDW [F17P]	3.25
IIKKVAEVALDKGCSQSRLAVLDW [F17S]	1.03
IIKKVAEVALDKGCSQTRLAVLDW [F17T]	3.18
IIKKVAEVALDKGCSQFLLAVLDW [R18L]	2.39
IIKKVAEVALDKGCSQFMLAVLDW [R18M]	1.8
IIKKVAEVALDKGCSQFPLAVLDW [R18P]	2.17

Variant	protein stability index
IIKKVAEVALDKGCSQFSLAVLDW [R18S]	3.36
IIKKVAEVALDKGCSQFYLAVLDW [R18Y]	3.6
IIKKVAEVALDKGCSQFRAAVLDW [L19A]	1.61
IIKKVAEVALDKGCSQFRHAVLDW [L19H]	3.62
IIKKVAEVALDKGCSQFRNAVLDW [L19N]	2.69
IIKKVAEVALDKGCSQFRRAVLDW [L19R]	2.5
IIKKVAEVALDKGCSQFRVAVLDW [L19V]	3.77
IIKKVAEVALDKGCSQFRYAVLDW [L19Y]	2.61
IIKKVAEVALDKGCSQFRLPVLDW [A20P]	2.01
IIKKVAEVALDKGCSQFRLTVLDW [A20T]	2.13
IIKKVAEVALDKGCSQFRLAGLDW [V21G]	3.79
IIKKVAEVALDKGCSQFRLAHLDW [V21H]	2.52
IIKKVAEVALDKGCSQFRLAKLDW [V21K]	1.87
IIKKVAEVALDKGCSQFRLALLDW [V21L]	4.52
IIKKVAEVALDKGCSQFRLANLDW [V21N]	1.51
IIKKVAEVALDKGCSQFRLAQLDW [V21Q]	1.04
IIKKVAEVALDKGCSQFRLATLDW [V21T]	1.78
IIKKVAEVALDKGCSQFRLAWLDW [V21W]	3.21
IIKKVAEVALDKGCSQFRLAVDDW [L22D]	1.23
IIKKVAEVALDKGCSQFRLAVFDW [L22F]	1.86
IIKKVAEVALDKGCSQFRLAVKDW [L22K]	2

Variant	protein stability index
IIKKVAEVALDKGCSQFRLAVPDW [L22P]	2.5
IIKKVAEVALDKGCSQFRLAVTDW [L22T]	3.66
IIKKVAEVALDKGCSQFRLAVWDW [L22W]	4.19
IIKKVAEVALDKGCSQFRLAVLCW [D23C]	3.04
IIKKVAEVALDKGCSQFRLAVLFW [D23F]	1.82
IIKKVAEVALDKGCSQFRLAVLHW [D23H]	3.77
IIKKVAEVALDKGCSQFRLAVLIW [D23I]	3.25
IIKKVAEVALDKGCSQFRLAVLMW [D23M]	2.98
IIKKVAEVALDKGCSQFRLAVLVW [D23V]	2.16
IIKKVAEVALDKGCSQFRLAVLYW [D23Y]	2.22
IIKKVAEVALDKGCSQFRLAVLDD [W24D]	1.37
IIKKVAEVALDKGCSQFRLAVLDE [W24E]	2.23
IIKKVAEVALDKGCSQFRLAVLDH [W24H]	1.04
IIKKVAEVALDKGCSQFRLAVLDM [W24M]	2.37
IIKKVAEVALDKGCSQFRLAVLDN [W24N]	2.22
IIKKVAEVALDKGCSQFRLAVLDP [W24P]	1.65
IIKKVAEVALDKGCSQFRLAVLDR [W24R]	1.28
IIKKVAEVALDKGCSQFRLAVLDS [W24S]	3.1
IIKKVAEVALDKGCSQFRLAVLDT [W24T]	2.24

Variants of: B2
Test: as above
Settings: c terminus: a fixed tail appended

Variant	protein stability index
AGVRRTASTPTPDDKLFQKLAKVY [R1A]	1.4
CGVRRTASTPTPDDKLFQKLAKVY [R1C]	1.4
DGVRRTASTPTPDDKLFQKLAKVY [R1D]	2.27
FGVRRTASTPTPDDKLFQKLAKVY [R1F]	1.92
HGVRRTASTPTPDDKLFQKLAKVY [R1H]	2.58
IGVRRTASTPTPDDKLFQKLAKVY [R1I]	1.42
KGVRRTASTPTPDDKLFQKLAKVY [R1K]	1.89
LGVRRTASTPTPDDKLFQKLAKVY [R1L]	2.88
MGVRRTASTPTPDDKLFQKLAKVY [R1M]	1.93
NGVRRTASTPTPDDKLFQKLAKVY [R1N]	2.42
PGVRRTASTPTPDDKLFQKLAKVY [R1P]	2.27
QGVRRTASTPTPDDKLFQKLAKVY [R1Q]	2.42

— the supplement of paper PMC10567573
